Our source for the ratio of clathrin to AP2 in the liposome pellets values is article PMC4333214.

The target of this assay is FLβ.AP2 (AP2 comprising full-length β2, μ2 and σ2 subunits and the α-trunk domain) (UniProt P63010). As to the kind of experiment: co-sedimentation.

Where “and” joins values, the source holds several entries; their conditions need not be identical. Equal values may be shown once.

clathrin, sequence (Q00610 whole entry, looked up): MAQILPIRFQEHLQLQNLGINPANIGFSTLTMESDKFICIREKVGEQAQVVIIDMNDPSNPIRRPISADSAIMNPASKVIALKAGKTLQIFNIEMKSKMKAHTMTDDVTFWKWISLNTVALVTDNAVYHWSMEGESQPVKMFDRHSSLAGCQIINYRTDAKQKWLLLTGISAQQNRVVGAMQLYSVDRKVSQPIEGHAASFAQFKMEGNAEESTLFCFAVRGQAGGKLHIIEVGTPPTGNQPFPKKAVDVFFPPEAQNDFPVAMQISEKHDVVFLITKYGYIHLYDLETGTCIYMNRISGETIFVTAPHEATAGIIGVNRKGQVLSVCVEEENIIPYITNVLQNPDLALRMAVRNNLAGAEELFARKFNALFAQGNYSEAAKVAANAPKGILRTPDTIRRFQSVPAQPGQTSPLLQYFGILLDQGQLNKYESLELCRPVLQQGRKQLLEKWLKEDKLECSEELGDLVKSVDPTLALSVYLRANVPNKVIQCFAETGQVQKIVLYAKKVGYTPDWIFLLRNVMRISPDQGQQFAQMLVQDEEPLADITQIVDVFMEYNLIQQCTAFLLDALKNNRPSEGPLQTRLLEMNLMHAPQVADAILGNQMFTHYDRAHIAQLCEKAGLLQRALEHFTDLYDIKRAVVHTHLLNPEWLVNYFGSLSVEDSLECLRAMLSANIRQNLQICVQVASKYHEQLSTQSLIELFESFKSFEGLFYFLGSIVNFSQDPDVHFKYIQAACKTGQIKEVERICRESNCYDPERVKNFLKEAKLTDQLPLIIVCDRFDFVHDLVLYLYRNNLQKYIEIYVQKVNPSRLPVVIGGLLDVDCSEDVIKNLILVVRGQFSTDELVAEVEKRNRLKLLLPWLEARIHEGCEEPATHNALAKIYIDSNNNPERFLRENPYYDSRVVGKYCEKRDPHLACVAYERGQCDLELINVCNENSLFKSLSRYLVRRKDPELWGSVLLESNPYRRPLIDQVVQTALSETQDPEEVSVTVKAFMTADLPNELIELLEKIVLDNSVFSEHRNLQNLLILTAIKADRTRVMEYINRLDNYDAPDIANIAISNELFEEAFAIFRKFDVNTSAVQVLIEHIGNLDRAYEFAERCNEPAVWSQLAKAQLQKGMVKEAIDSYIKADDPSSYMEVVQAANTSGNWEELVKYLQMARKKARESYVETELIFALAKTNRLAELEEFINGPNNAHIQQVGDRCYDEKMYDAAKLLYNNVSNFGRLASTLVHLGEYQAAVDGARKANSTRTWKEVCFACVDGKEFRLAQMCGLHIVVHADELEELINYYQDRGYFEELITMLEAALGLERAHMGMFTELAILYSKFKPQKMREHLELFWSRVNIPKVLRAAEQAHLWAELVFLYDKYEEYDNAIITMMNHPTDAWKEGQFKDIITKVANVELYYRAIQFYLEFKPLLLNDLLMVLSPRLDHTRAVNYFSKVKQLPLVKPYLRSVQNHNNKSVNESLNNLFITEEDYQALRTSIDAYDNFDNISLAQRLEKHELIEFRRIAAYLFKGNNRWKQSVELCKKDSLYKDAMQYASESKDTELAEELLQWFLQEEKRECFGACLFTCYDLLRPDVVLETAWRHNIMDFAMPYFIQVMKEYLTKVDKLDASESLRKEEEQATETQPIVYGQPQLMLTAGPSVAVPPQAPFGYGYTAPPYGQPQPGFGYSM

Consider “clathrin (from UniProt Q00610 1-1675) (complex)”, for which the ratio of clathrin to AP2 in the liposome pellets was 26.5% and 5.2%.
